Source: patent US20080181886A1 (Genentech, published 2008)

T1: Murine APRIL (mouse, UniProt Q9D777 105-241, limits assumed)
T1 sequence (looked up): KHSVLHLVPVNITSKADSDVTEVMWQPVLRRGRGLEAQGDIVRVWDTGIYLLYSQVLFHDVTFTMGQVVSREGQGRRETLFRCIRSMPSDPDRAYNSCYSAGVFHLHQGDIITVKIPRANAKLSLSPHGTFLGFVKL


Tests used:
human BAFF = human BAFF (human, UniProt Q9Y275 82-285, limits assumed); assay: NNS library, phage display;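 further: ligand versus display occurrence-to-degeneracy ratio and higher means enriched by binding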
human BAFF, sequence (Q9Y275 82-285 limits assumed): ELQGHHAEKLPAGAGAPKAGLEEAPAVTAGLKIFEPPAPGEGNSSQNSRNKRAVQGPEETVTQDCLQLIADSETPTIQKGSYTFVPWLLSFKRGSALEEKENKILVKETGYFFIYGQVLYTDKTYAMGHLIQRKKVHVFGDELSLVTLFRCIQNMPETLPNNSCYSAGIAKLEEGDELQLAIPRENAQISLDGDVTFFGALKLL
Procedure: (§1) This new phage library was subjected to sorting against either BAFF, APRIL or the display target antibody. After 3 rounds of sorting, approximately 48 clones were picked from each selection and the DNA sequences of the phage clones were determined. […] The normalized F′ value corrects for display bias and is calculated as the percent occurrence to percent degeneracy ratio for ligand selection divided by the percent occurrence to percent degeneracy ratio for display efficiency. Percent occurrence is calculated by dividing the number of times a particular amino acid appeared at a particular position by the total number of amino acids sequenced at that position followed by multiplying by 100. Percent degeneracy is calculated by dividing the degeneracy in code for a particular amino acid divided by the total degeneracy possible at that position followed by multiplying by 100 (e.g., if only A, G and I were selected, total degeneracy possible would be 5).

Murine APRIL = molecular target: T1, Murine APRIL; assay: NNS library, phage display;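 further: ligand versus display occurrence-to-degeneracy ratio and higher means enriched by binding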
Procedure: as §1

| Binder | F' BAFF (human BAFF) | F' APRIL (Murine APRIL) |
| --- | --- | --- |
| SLSCRKEQGKFYDHLLRDCISCASDCGQHPKQCAYFCENKLR (receptor, phage library variant, format as m9) [TACI_d2 I92D] | 0 | 0 |
| SLSCRKEQGKFYDHLLRDCISCASECGQHPKQCAYFCENKLR (receptor, phage library variant, format as m9) [TACI_d2 I92E] | 0 | 0 |
| SLSCRKEQGKFYDHLLRDCISCASFCGQHPKQCAYFCENKLR (receptor, phage library variant, format as m9) [TACI_d2 I92F] | 0 | 0 |
| SLSCRKEQGKFYDHLLRDCISCASGCGQHPKQCAYFCENKLR (receptor, phage library variant, format as m9) [TACI_d2 I92G] | 0 | 0 |
| SLSCRKEQGKFYDHLLRDCISCASHCGQHPKQCAYFCENKLR (receptor, phage library variant, format as m9) [TACI_d2 I92H] | 0 | 0 |
| SLSCRKEQGKFYDHLLRDCISCASKCGQHPKQCAYFCENKLR (receptor, phage library variant, format as m9) [TACI_d2 I92K] | 0 | 0 |
| SLSCRKEQGKFYDHLLRDCISCASLCGQHPKQCAYFCENKLR (receptor, phage library variant, format as m9) [TACI_d2 I92L] | 0 | 2 |
| SLSCRKEQGKFYDHLLRDCISCASMCGQHPKQCAYFCENKLR (receptor, phage library variant, format as m9) [TACI_d2 I92M] | 0 | 0 |
| SLSCRKEQGKFYDHLLRDCISCASNCGQHPKQCAYFCENKLR (receptor, phage library variant, format as m9) [TACI_d2 I92N] | 0 | 0 |
| SLSCRKEQGKFYDHLLRDCISCASPCGQHPKQCAYFCENKLR (receptor, phage library variant, format as m9) [TACI_d2 I92P] | 0 | 0 |
| SLSCRKEQGKFYDHLLRDCISCASQCGQHPKQCAYFCENKLR (receptor, phage library variant, format as m9) [TACI_d2 I92Q] | 0 | 0 |
| SLSCRKEQGKFYDHLLRDCISCASRCGQHPKQCAYFCENKLR (receptor, phage library variant, format as m9) [TACI_d2 I92R] | 0 | 0 |
| SLSCRKEQGKFYDHLLRDCISCASSCGQHPKQCAYFCENKLR (receptor, phage library variant, format as m9) [TACI_d2 I92S] | 0 | 0 |
| SLSCRKEQGKFYDHLLRDCISCASWCGQHPKQCAYFCENKLR (receptor, phage library variant, format as m9) [TACI_d2 I92W] | 0 | 0 |
| SLSCRKEQGKFYDHLLRDCISCASYCGQHPKQCAYFCENKLR (receptor, phage library variant, format as m9) [TACI_d2 I92Y] | 0 | 0 |
| SLSCRKEQGKFYDHLLCDCISCASICGQHPKQCAYFCENKLR (receptor, phage library variant, format as m9) [TACI_d2 R84C] | 0 | 0 |
| SLSCRKEQGKFYDHLLDDCISCASICGQHPKQCAYFCENKLR (receptor, phage library variant, format as m9) [TACI_d2 R84D] | 0 | 9 |
| SLSCRKEQGKFYDHLLEDCISCASICGQHPKQCAYFCENKLR (receptor, phage library variant, format as m9) [TACI_d2 R84E] | 0 | 3 |
| SLSCRKEQGKFYDHLLFDCISCASICGQHPKQCAYFCENKLR (receptor, phage library variant, format as m9) [TACI_d2 R84F] | 7 | 9 |
| SLSCRKEQGKFYDHLLHDCISCASICGQHPKQCAYFCENKLR (receptor, phage library variant, format as m9) [TACI_d2 R84H] | 1 | 0 |
| SLSCRKEQGKFYDHLLIDCISCASICGQHPKQCAYFCENKLR (receptor, phage library variant, format as m9) [TACI_d2 R84I] | 0 | 0 |
| SLSCRKEQGKFYDHLLKDCISCASICGQHPKQCAYFCENKLR (receptor, phage library variant, format as m9) [TACI_d2 R84K] | 1 | 0 |
| SLSCRKEQGKFYDHLLLDCISCASICGQHPKQCAYFCENKLR (receptor, phage library variant, format as m9) [TACI_d2 R84L] | 2 | 3 |
| SLSCRKEQGKFYDHLLMDCISCASICGQHPKQCAYFCENKLR (receptor, phage library variant, format as m9) [TACI_d2 R84M] | 7 | 18 |

| Binder | F' BAFF (human BAFF) | F' APRIL (Murine APRIL) |
| --- | --- | --- |
| SLSCRKEQGKFYDHLLNDCISCASICGQHPKQCAYFCENKLR (receptor, phage library variant, format as m9) [TACI_d2 R84N] | 1 | 0 |
| SLSCRKEQGKFYDHLLQDCISCASICGQHPKQCAYFCENKLR (receptor, phage library variant, format as m9) [TACI_d2 R84Q] | 0 | 0 |
| SLSCRKEQGKFYDHLLSDCISCASICGQHPKQCAYFCENKLR (receptor, phage library variant, format as m9) [TACI_d2 R84S] | 0 | 0 |
| SLSCRKEQGKFYDHLLTDCISCASICGQHPKQCAYFCENKLR (receptor, phage library variant, format as m9) [TACI_d2 R84T] | 3 | 0 |
| SLSCRKEQGKFYDHLLVDCISCASICGQHPKQCAYFCENKLR (receptor, phage library variant, format as m9) [TACI_d2 R84V] | 2 | 4 |
| SLSCRKEQGKFYDHLLWDCISCASICGQHPKQCAYFCENKLR (receptor, phage library variant, format as m9) [TACI_d2 R84W] | 0 | 9 |
| SLSCRKEQGKFYDHLLYDCISCASICGQHPKQCAYFCENKLR (receptor, phage library variant, format as m9) [TACI_d2 R84Y] | 1 | 0 |
| SLSCRKEQGKFCDHLLRDCISCASICGQHPKQCAYFCENKLR (receptor, phage library variant, format as m9) [TACI_d2 Y79C] | 0 | 0 |
| SLSCRKEQGKFEDHLLRDCISCASICGQHPKQCAYFCENKLR (receptor, phage library variant, format as m9) [TACI_d2 Y79E] | 0 | 8 |
| SLSCRKEQGKFFDHLLRDCISCASICGQHPKQCAYFCENKLR (receptor, phage library variant, format as m9) [TACI_d2 Y79F] | 5 | 4 |
| SLSCRKEQGKFGDHLLRDCISCASICGQHPKQCAYFCENKLR (receptor, phage library variant, format as m9) [TACI_d2 Y79G] | 0 | 0 |
| SLSCRKEQGKFHDHLLRDCISCASICGQHPKQCAYFCENKLR (receptor, phage library variant, format as m9) [TACI_d2 Y79H] | 0 | 0 |
| SLSCRKEQGKFIDHLLRDCISCASICGQHPKQCAYFCENKLR (receptor, phage library variant, format as m9) [TACI_d2 Y79I] | 6 | 4 |
| SLSCRKEQGKFKDHLLRDCISCASICGQHPKQCAYFCENKLR (receptor, phage library variant, format as m9) [TACI_d2 Y79K] | 0 | 0 |
| SLSCRKEQGKFLDHLLRDCISCASICGQHPKQCAYFCENKLR (receptor, phage library variant, format as m9) [TACI_d2 Y79L] | 1 | 0 |
| SLSCRKEQGKFMDHLLRDCISCASICGQHPKQCAYFCENKLR (receptor, phage library variant, format as m9) [TACI_d2 Y79M] | 0 | 0 |
| SLSCRKEQGKFNDHLLRDCISCASICGQHPKQCAYFCENKLR (receptor, phage library variant, format as m9) [TACI_d2 Y79N] | 0 | 0 |
| SLSCRKEQGKFPDHLLRDCISCASICGQHPKQCAYFCENKLR (receptor, phage library variant, format as m9) [TACI_d2 Y79P] | 3 | 2 |
| SLSCRKEQGKFQDHLLRDCISCASICGQHPKQCAYFCENKLR (receptor, phage library variant, format as m9) [TACI_d2 Y79Q] | 0 | 0 |
| SLSCRKEQGKFRDHLLRDCISCASICGQHPKQCAYFCENKLR (receptor, phage library variant, format as m9) [TACI_d2 Y79R] | 0 | 0 |
| SLSCRKEQGKFTDHLLRDCISCASICGQHPKQCAYFCENKLR (receptor, phage library variant, format as m9) [TACI_d2 Y79T] | 0 | 0 |
| SLSCRKEQGKFVDHLLRDCISCASICGQHPKQCAYFCENKLR (receptor, phage library variant, format as m9) [TACI_d2 Y79V] | 2 | 0 |
| SLSCRKEQGKFWDHLLRDCISCASICGQHPKQCAYFCENKLR (receptor, phage library variant, format as m9) [TACI_d2 Y79W] | 4 | 3 |
